Positions count from the first letter of the chain named. Names may count otherwise.
Key:
Assay in all cases: cell-based or functional assay
[1] = biological target: HIV-1 Env of strain BJOX010000.06.2 (HIV-1)
[2] = biological target: HIV-1 Env of strain 249M B10 (HIV-1)
[3] = biological target: HIV-1 Env of strain X2088_c9 (HIV-1)
[4] = biological target: HIV-1 Env of strain MS208.A1 (HIV-1)
[5] = biological target: HIV-1 Env of strain 7030102001E5(Rev) (HIV-1)
[6] = biological target: HIV-1 Env of strain Ce1172_H1 (HIV-1)
[7] = biological target: HIV-1 Env of strain A07412M1.vrc12 (HIV-1)
[8] = biological target: HIV-1 Env of strain CNE8 (HIV-1)
[9] = biological target: HIV-1 Env of strain 6540.v4.c1 (HIV-1)
[10] = biological target: HIV-1 Env of strain 6240_08_TA5_4622 (HIV-1)
[11] = biological target: HIV-1 Env of strain 191955_A11 (HIV-1)
[12] = biological target: HIV-1 Env of strain 6952.v1.c20 (HIV-1)
[13] = biological target: HIV-1 Env of strain HIV-001428-2.42 (HIV-1)
[14] = biological target: HIV-1 Env of strain Ce704809221_1B3 (HIV-1)
[15] = biological target: Env of HIV-1 strain Q461.e2 (HIV-1)
[16] = biological target: Env of HIV-1 strain QH0692.42 (HIV-1)
[17] = biological target: Env of HIV-1 strain BJOX028000.10.3 (HIV-1)
[18] = biological target: Env of HIV-1 strain 263-8 (HIV-1)
[19] = biological target: Env of HIV-1 strain Q23.17 (HIV-1)
[20] = biological target: Env of HIV-1 strain A07412M1.vrc12 (HIV-1)
[21] = biological target: Env of HIV-1 strain T255-34 (HIV-1)
[22] = biological target: Env of HIV-1 strain 1006_11_C3_1601 (HIV-1)
[23] = biological target: Env of HIV-1 strain T257-31 (HIV-1)
[24] = biological target: Env of HIV-1 strain CNE8 (HIV-1)
[25] = biological target: Env of HIV-1 strain HIV-16055-2.3 (HIV-1)
[26] = biological target: Env of HIV-1 strain 191084 B7-19 (HIV-1)
[27] = biological target: Env of HIV-1 strain SC05_8C11_2344 (HIV-1)
[28] = biological target: Env of HIV-1 strain 246F C1G (HIV-1)
[29] = biological target: Env of HIV-1 strain 6480.v4.c25 (HIV-1)
[30] = biological target: Env of HIV-1 strain AC10.0.29 (HIV-1)
[31] = biological target: Env of HIV-1 strain CNE19 (HIV-1)
[32] = biological target: Env of HIV-1 strain BF1266.431a (HIV-1)
[33] = biological target: Env of HIV-1 strain Ce0682_E4 (HIV-1)
[34] = biological target: Env of HIV-1 strain MS208.A1 (HIV-1)
[35] = biological target: Env of HIV-1 strain Du156.12 (HIV-1)
[36] = biological target: Env of HIV-1 strain 6244_13_B5_4576 (HIV-1)
[37] = biological target: Env of HIV-1 strain 3301.v1.c24 (HIV-1)
[38] = biological target: Env of HIV-1 strain 231966.c02 (HIV-1)
[39] = biological target: Env of HIV-1 strain ZM53M.PB12 (HIV-1)
[40] = biological target: Env of HIV-1 strain 3103.v3.c10 (HIV-1)
[41] = biological target: Env of HIV-1 strain P0402_c2_11 (HIV-1)
[42] = biological target: Env of HIV-1 strain BJOX009000.02.4 (HIV-1)
[43] = biological target: Env of HIV-1 strain HIV-001428-2.42 (HIV-1)
[44] = biological target: Env of HIV-1 strain Du172.17 (HIV-1)
[45] = biological target: Env of HIV-1 strain CNE53 (HIV-1)
[46] = biological target: Env of HIV-1 strain 6240_08_TA5_4622 (HIV-1)
[47] = biological target: Env of HIV-1 strain REJO4541.67 (HIV-1)
[48] = biological target: Env of HIV-1 strain ZM247v1(Rev-) (HIV-1)
[49] = biological target: Env of HIV-1 strain WEAU_d15_410_787 (HIV-1)
[50] = biological target: Env of HIV-1 strain C4118.c09 (HIV-1)

B1: NIH45-46^G54W(HC), S28Y(LC) (antibody, V domains shown)
VH: QVRLSQSGGQMKKPGESMRLSCRASGYEFLNCPINWIRLAPGRRPEWMGWLKPRWGAVNYARKFQGRVTMTRDVYSDTAFLELRSLTSDDTAVYFCTRGKYCTARDYYNWDFEHWGRGAPVTVSS
VL: EIVLTQSPATLSLSPGETAIISCRTSQYGSLAWYQQRPGQAPRLVIYSGSTRAAGIPDRFSGSRWGADYNLSISNLESGDFGVYYCQQYEFFGQGTKVQVDI
- IC50, pseudovirus neutralization [1]: 1.38 µg/mL
- IC50, pseudovirus neutralization [2]: 0.001 µg/mL
- IC50, pseudovirus neutralization [3]: 44.3 µg/mL
- IC50, pseudovirus neutralization [4]: 0.022 µg/mL
- IC50, pseudovirus neutralization [5]: 0.038 µg/mL
- IC50, pseudovirus neutralization [6]: > 50 µg/mL
- IC50, pseudovirus neutralization [7]: 0.001 µg/mL
- IC50, pseudovirus neutralization [8]: 0.038 µg/mL
- IC50, pseudovirus neutralization [9]: > 50 µg/mL
- IC50, pseudovirus neutralization [10]: 0.173 µg/mL
- IC50, pseudovirus neutralization [11]: 0.013 µg/mL
- IC50, pseudovirus neutralization [12]: 0.007 µg/mL
- IC50, pseudovirus neutralization [13]: 0.001 µg/mL
- IC50, pseudovirus neutralization [14]: 0.101 µg/mL

B2: NIH45-46^G54W(HC) S28Y(LC) (antibody, V domains shown)
VH: B1 VH
VL: B1 VL
- IC80 [15]: 0.134 µg/mL
- IC80 [16]: 0.622 µg/mL
- IC80 [17]: 0.006 µg/mL
- IC80 [18]: 0.067 µg/mL
- IC80 [19]: 0.05 µg/mL
- IC80 [20]: 0.064 µg/mL
- IC80 [21]: 0.105 µg/mL
- IC80 [22]: 0.037 µg/mL
- IC80 [23]: 0.471 µg/mL
- IC80 [24]: 0.156 µg/mL
- IC80 [25]: 0.017 µg/mL
- IC80 [26]: 0.016 µg/mL
- IC80 [27]: 0.219 µg/mL
- IC80 [28]: 0.14 µg/mL
- IC80 [29]: 0.058 µg/mL
- IC80 [30]: 0.554 µg/mL
- IC80 [31]: 0.102 µg/mL
- IC80 [32]: 0.013 µg/mL
- IC80 [33]: 0.031 µg/mL
- IC80 [34]: 0.089 µg/mL
- IC80 [35]: 0.024 µg/mL
- IC80 [36]: 0.109 µg/mL
- IC80 [37]: 0.006 µg/mL
- IC80 [38]: 0.076 µg/mL
- IC80 [39]: 0.257 µg/mL
- IC80 [40]: 0.594 µg/mL
- IC80 [41]: 0.042 µg/mL
- IC80 [42]: 0.621 µg/mL
- IC80 [43]: 0.002 µg/mL
- IC80 [44]: 0.125 µg/mL
- IC80 [45]: 0.039 µg/mL
- IC80 [46]: 0.623 µg/mL
- IC80 [47]: 0.01 µg/mL
- IC80 [48]: 0.034 µg/mL
- IC80 [49]: 0.027 µg/mL
- IC80 [50]: 0.058 µg/mL

B3: NIH45-46^G54W (antibody, V domains shown)
VH: B1 VH
VL: B1 VL with Y28S
- IC80 [15]: 0.091 µg/mL
- IC80 [16]: 1.12 µg/mL
- IC80 [17]: 0.002 µg/mL
- IC80 [18]: 0.025 µg/mL
- IC50, pseudovirus neutralization [1]: 0.769 µg/mL
- IC80 [19]: 0.03 µg/mL
- IC80 [20]: 0.042 µg/mL
- IC80 [21]: 0.099 µg/mL
- IC80 [22]: 0.008 µg/mL
- IC80 [23]: 0.45 µg/mL
- IC80 [24]: 0.24 µg/mL
- IC80 [25]: 0.024 µg/mL
- IC80 [26]: 0.026 µg/mL
- IC50, pseudovirus neutralization [2]: 0.001 µg/mL
- IC50, pseudovirus neutralization [3]: > 50 µg/mL
- IC80 [27]: 0.2 µg/mL
- IC80 [28]: 2.45 µg/mL
- IC50, pseudovirus neutralization [4]: 0.031 µg/mL
- IC50, pseudovirus neutralization [5]: 0.042 µg/mL
- IC80 [29]: 0.021 µg/mL
- IC80 [30]: 0.63 µg/mL
- IC50, pseudovirus neutralization [6]: > 50 µg/mL
- IC80 [31]: 0.028 µg/mL
- IC80 [32]: 0.001 µg/mL
- IC50, pseudovirus neutralization [7]: 0.001 µg/mL
- IC80 [33]: 0.039 µg/mL
- IC80 [34]: 0.17 µg/mL
- IC80 [35]: 0.005 µg/mL
- IC80 [36]: 0.095 µg/mL
- IC80 [37]: 0.004 µg/mL
- IC80 [38]: 0.11 µg/mL
- IC80 [39]: 0.16 µg/mL
- IC80 [40]: 0.56 µg/mL
- IC80 [41]: 0.023 µg/mL
- IC50, pseudovirus neutralization [8]: 0.055 µg/mL
- IC50, pseudovirus neutralization [9]: > 50 µg/mL
- IC50, pseudovirus neutralization [10]: 0.11 µg/mL
- IC50, pseudovirus neutralization [11]: 0.015 µg/mL
- IC80 [42]: 0.564 µg/mL
- IC80 [43]: 0.001 µg/mL
- IC50, pseudovirus neutralization [12]: 0.001 µg/mL
- IC80 [44]: 42.9 µg/mL
- IC80 [45]: 0.005 µg/mL
- IC80 [46]: 0.603 µg/mL
- IC80 [47]: 0.013 µg/mL
- IC80 [48]: 2.6 µg/mL
- IC50, pseudovirus neutralization [13]: 0.001 µg/mL
- IC50, pseudovirus neutralization [14]: 0.007 µg/mL
- IC80 [49]: 0.003 µg/mL
- IC80 [50]: 0.087 µg/mL

— patent US20130209454A1
